These results are taken from paper PMC10397247.

The target of test [1] is T1, 4H717-bN.
T1 chain: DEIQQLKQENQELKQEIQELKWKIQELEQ
The test is described as follows: two-hybrid library CCNG1.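 Further: natural log of median RNA to DNA barcode read ratio; higher means stronger binding.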

The target of test [2] is T2, 4H967-bN.
T2 chain: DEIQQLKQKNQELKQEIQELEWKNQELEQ
The test is described as follows: two-hybrid library CCNG1.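 Further: natural log of median RNA to DNA barcode read ratio; higher means stronger binding.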

Test [3] has as its target T3, 4H953-bN.
T3 chain: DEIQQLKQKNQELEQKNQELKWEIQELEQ
The test is described as follows: two-hybrid library CCNG1.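 Further: natural log of median RNA to DNA barcode read ratio; higher means stronger binding.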

In test [4] the target is T4, 4H855-bN.
T4 chain: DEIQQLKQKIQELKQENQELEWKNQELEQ
The test is described as follows: two-hybrid library CCNG1.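 Further: natural log of median RNA to DNA barcode read ratio; higher means stronger binding.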

Test [5] addresses T5, 4H717-bA.
T5 chain: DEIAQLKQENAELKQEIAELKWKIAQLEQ
The test is described as follows: two-hybrid library CCNG1.

Test [6] deals with T6, 4H883-bN.
T6 chain: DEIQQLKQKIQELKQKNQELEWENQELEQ
The test is described as follows: two-hybrid library CCNG1.

Test [7] deals with T7, 4H607-bN.
T7 chain: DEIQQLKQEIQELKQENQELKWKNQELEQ
The test is described as follows: two-hybrid library CCNG1.

For test [8], the target named is T8, 4H72-bN.
T8 chain: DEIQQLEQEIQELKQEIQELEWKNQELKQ
The test is described as follows: two-hybrid library CCNG1.

The target in test [9] is T9, 4H346-bN.
T9 chain: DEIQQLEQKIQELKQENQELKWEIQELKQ
The test is described as follows: two-hybrid library CCNG1.

Test [10] has as its target T10, 4H4001-bN.
T10 chain: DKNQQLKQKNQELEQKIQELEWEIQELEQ
The test is described as follows: two-hybrid library CCNG1.

In test [11] the target is T11, 4H457-bN.
T11 chain: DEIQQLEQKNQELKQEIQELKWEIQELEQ
The test is described as follows: two-hybrid library CCNG1.

Test [12] concerns the target T12, 4H918-bN.
T12 chain: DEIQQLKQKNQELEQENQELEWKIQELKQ
The test is described as follows: two-hybrid library CCNG1.

In test [13] the target is T13, 4H687-bN.
T13 chain: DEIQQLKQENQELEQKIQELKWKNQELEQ
The test is described as follows: two-hybrid library CCNG1.

Test [14] addresses T14, 4H454-bN.
T14 chain: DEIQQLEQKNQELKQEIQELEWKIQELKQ
The test is described as follows: two-hybrid library CCNG1.

In test [15] the target is T15, 4H568-bN.
T15 chain: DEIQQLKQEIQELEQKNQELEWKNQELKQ
The test is described as follows: two-hybrid library CCNG1.

Test [16] concerns the target T16, 4H780-bN.
T16 chain: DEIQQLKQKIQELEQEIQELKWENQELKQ
The test is described as follows: two-hybrid library CCNG1.

For test [17], the target named is T17, 4H4073-bN.
T17 chain: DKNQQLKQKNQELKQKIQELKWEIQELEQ
The test is described as follows: two-hybrid library CCNG1.

The target in test [18] is T18, 4H3855-bN.
T18 chain: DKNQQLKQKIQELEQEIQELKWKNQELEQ
The test is described as follows: two-hybrid library CCNG1.

For test [19], the target named is T19, 4H754-bN.
T19 chain: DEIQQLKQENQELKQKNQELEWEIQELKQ
The test is described as follows: two-hybrid library CCNG1.

Test [20] deals with T20, 4H575-bN.
T20 chain: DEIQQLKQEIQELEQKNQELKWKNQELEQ
The test is described as follows: two-hybrid library CCNG1.

Test [21] addresses T21, O13.
T21 chain: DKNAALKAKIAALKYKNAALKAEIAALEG
The test is described as follows: two-hybrid library CCNG1.

Test [22] concerns the target T22, 4H908-bN.
T22 chain: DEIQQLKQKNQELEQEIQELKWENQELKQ
The test is described as follows: two-hybrid library CCNG1.

In test [23] the target is T23, 4H3782-bN.
T23 chain: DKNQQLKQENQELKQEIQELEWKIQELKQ
The test is described as follows: two-hybrid library CCNG1.

Test [24] addresses T24, 4H3427-bN.
T24 chain: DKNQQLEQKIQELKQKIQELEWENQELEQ
The test is described as follows: two-hybrid library CCNG1.

In test [25] the target is T25, 4H968-bN.
T25 chain: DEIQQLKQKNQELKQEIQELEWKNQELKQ
The test is described as follows: two-hybrid library CCNG1.

Test [26] has as its target T26, 4H797-bN.
T26 chain: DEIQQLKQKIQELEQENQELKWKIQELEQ
The test is described as follows: two-hybrid library CCNG1.

Test [27] addresses T27, 4H3926-bN.
T27 chain: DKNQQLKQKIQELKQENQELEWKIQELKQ
The test is described as follows: two-hybrid library CCNG1.

The target in test [28] is T28, 4H683-bN.
T28 chain: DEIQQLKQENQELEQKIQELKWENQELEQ
The test is described as follows: two-hybrid library CCNG1.

Test [29] addresses T29, 4H730-bN.
T29 chain: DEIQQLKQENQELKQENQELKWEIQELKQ
The test is described as follows: two-hybrid library CCNG1.

The target of test [30] is T30, 4H949-bN.
T30 chain: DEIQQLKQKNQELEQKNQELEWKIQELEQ
The test is described as follows: two-hybrid library CCNG1.

In test [31] the target is T31, 4H56-bN.
T31 chain: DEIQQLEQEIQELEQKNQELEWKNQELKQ
The test is described as follows: two-hybrid library CCNG1.

In test [32] the target is T32, 4H932-bN.
T32 chain: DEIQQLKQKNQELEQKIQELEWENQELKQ
The test is described as follows: two-hybrid library CCNG1.

The target in test [33] is T33, P8A-bN.
T33 chain: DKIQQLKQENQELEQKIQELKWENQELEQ
The test is described as follows: two-hybrid library CCNG1.

Test [34] addresses T34, 4H796-bN.
T34 chain: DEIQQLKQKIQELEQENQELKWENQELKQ
The test is described as follows: two-hybrid library CCNG1.

The target in test [35] is T35, 4H3364-bH.
T35 chain: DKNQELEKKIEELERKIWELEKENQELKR
The test is described as follows: two-hybrid library CCNG1.

The target in test [36] is T36, 4H932-bH.
T36 chain: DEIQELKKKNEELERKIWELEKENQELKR
The test is described as follows: two-hybrid library CCNG1.

Test [37] addresses T37, 4H2760-bH.
T37 chain: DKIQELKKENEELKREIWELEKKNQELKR
The test is described as follows: two-hybrid library CCNG1.

Test [38] addresses T38, 4H349-bH.
T38 chain: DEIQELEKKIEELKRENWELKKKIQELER
The test is described as follows: two-hybrid library CCNG1.

In test [39] the target is T39, 4H2585-bH.
T39 chain: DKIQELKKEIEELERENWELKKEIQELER
The test is described as follows: two-hybrid library CCNG1.

Test [40] has as its target T40, 4H264-bH.
T40 chain: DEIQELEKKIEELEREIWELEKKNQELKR
The test is described as follows: two-hybrid library CCNG1.

Test [41] addresses T41, 4H949-bH.
T41 chain: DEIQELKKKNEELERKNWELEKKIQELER
The test is described as follows: two-hybrid library CCNG1.

Test [42] concerns the target T42, 4H3041-bH.
T42 chain: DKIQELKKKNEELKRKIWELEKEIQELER
The test is described as follows: two-hybrid library CCNG1.

The target in test [43] is T43, 4H796-bH.
T43 chain: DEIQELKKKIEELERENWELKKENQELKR
The test is described as follows: two-hybrid library CCNG1.

Test [44] addresses T44, 4H3297-bH.
T44 chain: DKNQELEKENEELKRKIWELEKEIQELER
The test is described as follows: two-hybrid library CCNG1.

Test [45] addresses T45, 4H2518-bH.
T45 chain: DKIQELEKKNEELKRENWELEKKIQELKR
The test is described as follows: two-hybrid library CCNG1.

Test [46] deals with T46, 4H2444-bH.
T46 chain: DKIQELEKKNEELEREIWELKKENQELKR
The test is described as follows: two-hybrid library CCNG1.

In test [47] the target is T47, 4H2859-bH.
T47 chain: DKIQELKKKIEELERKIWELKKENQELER
The test is described as follows: two-hybrid library CCNG1.

The target in test [48] is T48, 4H3381-bH.
T48 chain: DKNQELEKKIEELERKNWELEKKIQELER
The test is described as follows: two-hybrid library CCNG1.

Test [49] has as its target T49, 4H2931-bH.
T49 chain: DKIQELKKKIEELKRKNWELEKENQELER
The test is described as follows: two-hybrid library CCNG1.

Test [50] addresses T50, 4H730-bH.
T50 chain: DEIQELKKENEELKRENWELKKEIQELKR
The test is described as follows: two-hybrid library CCNG1.

Test [51] addresses T51, 4H56-bH.
T51 chain: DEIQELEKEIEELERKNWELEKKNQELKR
The test is described as follows: two-hybrid library CCNG1.

In test [52] the target is T52, O16.
T52 chain: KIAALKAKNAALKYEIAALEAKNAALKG
The test is described as follows: two-hybrid library CC0. The note with it: mean of both orientations.

Test [53] deals with T53, O5.
T53 chain: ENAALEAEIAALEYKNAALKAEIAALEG
The test is described as follows: two-hybrid library CC0. To be noted: mean of both orientations.

The target of test [54] is T54, O7.
T54 chain: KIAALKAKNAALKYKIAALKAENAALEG
The test is described as follows: two-hybrid library CC0. To be noted: mean of both orientations.

Test [55] concerns the target T55, O15.
T55 chain: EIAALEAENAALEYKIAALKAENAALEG
The test is described as follows: two-hybrid library CC0. To be noted: mean of both orientations.

The target in test [56] is T56, O6.
T56 chain: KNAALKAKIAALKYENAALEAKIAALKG
The test is described as follows: two-hybrid library CC0. To be noted: mean of both orientations.

In test [57] the target is T57, O4.
T57 chain: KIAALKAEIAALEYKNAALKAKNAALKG
The test is described as follows: two-hybrid library CC0. The note with it: mean of both orientations.

Test [58] addresses T58, O8.
T58 chain: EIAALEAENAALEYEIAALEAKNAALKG
The test is described as follows: two-hybrid library CC0. The note with it: mean of both orientations.

The target in test [59] is T59, O9.
T59 chain: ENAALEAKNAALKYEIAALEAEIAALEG
The test is described as follows: two-hybrid library CC0. The note with it: mean of both orientations.

Test [60] deals with T60, O3.
T60 chain: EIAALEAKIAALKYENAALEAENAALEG
The test is described as follows: two-hybrid library CC0. To be noted: mean of both orientations.

The target in test [61] is T61, O2.
T61 chain: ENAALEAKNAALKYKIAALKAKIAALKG
The test is described as follows: two-hybrid library CC0. The note with it: mean of both orientations.

DKNQQLEQKIQELKQKIQELEWENQELEQ [4H3427-bN]: the interaction score was -0.704 in test [1]; -1.07 in [2]; -0.667 in [3]; -0.804 in [4]; -0.117 in [5]; -1.75 in test [6]. Also, the interaction score in test [7] is -0.874; in test [8], -1.54; in test [9] it was -2.04; in test [10], -1; in test [11], -0.939; in [12] it was -1.53. Further, the interaction score in test [13] is -0.849; in test [14] it was -0.734; in test [15], -0.0377; in test [16], -1.3; in test [17], -1.1; in [18], -0.838. Further, the interaction score in test [19] is -1.39; in [20], -1.57; in test [21] it was -2.44; in test [22], -0.725; in [23] it was -0.306; in test [24] it was -0.0454. Further, the interaction score in test [25] was -1.97; in test [26], -0.295; in [27], -1.1; in [28], -2.33.
In the case of DEIQQLEQEIQELEQKNQELEWKNQELKQ [4H56-bN], the interaction score is 0.387 in [29]; -1.76 in test [30]; 0.863 in [31]; -0.791 in [32]; -1.19 in [33]; -0.5 in test [21]. The molecule further came in with an interaction score in [34] of 0.00289.
On to DKIQELEKKNEELEREIWELKKENQELKR [4H2444-bH], for which the interaction score in test [35] is 0.375; in test [36] it was 0.176; in [37], 0.592; in test [38] it was -0.694; in test [39], 0.868; in [40] it was -2.12. The interaction score in [41] was -0.478; in test [42] it was -0.0348; in test [43], 0.0566; in test [44] it was 0.285; in test [45] it was 0.571; in test [46], 1.48. Further, the interaction score in [47] is 0.771; in [48], 0.313; in test [49], 0.0488; in [50], -0.91; in [51], -0.284.
EIAALEAENAALEYKIAALKAENAALEG [O15]: the interaction score in [52] was 1.2; in test [53] it was -2.15; in test [54], -1.87; in [55] it was -2.64; in [56], -2.79; in test [57] it was -2.54. The interaction score was -2.41 in test [58], -2.72 in [59], -2.8 in test [60] and -2.7 in test [61].
